From publication PMC10527483

Key:
Experiment in all cases: pull-down
QKI5 = biological target: T1, QKI5 (human, UniProt Q96PU8 1-341)
T1 sequence: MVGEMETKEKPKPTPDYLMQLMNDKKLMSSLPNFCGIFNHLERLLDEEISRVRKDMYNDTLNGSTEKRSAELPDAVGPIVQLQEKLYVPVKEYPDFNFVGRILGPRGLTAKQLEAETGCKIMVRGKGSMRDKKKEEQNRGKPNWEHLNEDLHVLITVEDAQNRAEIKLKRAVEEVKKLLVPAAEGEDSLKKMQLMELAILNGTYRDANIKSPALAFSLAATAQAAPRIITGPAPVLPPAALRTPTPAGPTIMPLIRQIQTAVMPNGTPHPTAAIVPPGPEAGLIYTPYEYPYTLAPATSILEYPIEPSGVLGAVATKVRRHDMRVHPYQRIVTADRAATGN

QKI6 = biological target: T2, QKI6 (human, UniProt Q96PU8-9 1-319)
T2 sequence: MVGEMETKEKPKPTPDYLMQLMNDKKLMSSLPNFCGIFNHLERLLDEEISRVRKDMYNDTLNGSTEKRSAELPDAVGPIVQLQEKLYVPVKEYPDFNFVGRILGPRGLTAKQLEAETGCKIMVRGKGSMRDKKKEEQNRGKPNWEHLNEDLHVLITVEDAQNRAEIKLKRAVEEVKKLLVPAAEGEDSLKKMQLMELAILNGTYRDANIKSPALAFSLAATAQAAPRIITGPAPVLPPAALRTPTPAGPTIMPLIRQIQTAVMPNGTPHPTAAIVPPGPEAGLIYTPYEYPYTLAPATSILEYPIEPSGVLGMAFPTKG

QKI7 = biological target: T3, QKI7 (human, UniProt Q96PU8-6 1-325)
T3 sequence: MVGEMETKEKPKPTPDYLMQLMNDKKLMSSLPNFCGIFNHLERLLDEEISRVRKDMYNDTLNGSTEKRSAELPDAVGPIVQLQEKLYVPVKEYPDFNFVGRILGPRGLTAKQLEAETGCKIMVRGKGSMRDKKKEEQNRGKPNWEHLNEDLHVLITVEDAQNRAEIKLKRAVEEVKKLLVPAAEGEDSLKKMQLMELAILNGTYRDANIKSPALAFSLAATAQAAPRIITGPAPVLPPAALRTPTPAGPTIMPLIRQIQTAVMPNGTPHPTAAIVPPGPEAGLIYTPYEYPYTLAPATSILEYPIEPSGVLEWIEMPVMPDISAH

Measured: binding result

B1: m7G-Oligo, 60-mer (ssRNA)
RNA: CCAAUAAAAUAUUAACCACCAAUAAAAUAUUAACCAAGAUCCACCAAUAAAAUAUUAACC
modifications: N7-methylguanosine at G38 (the only G)
binds: all assays above
